22 sequences from the DeepSol protein solubility set can be followed below.

A short description of the series: soluble on expression in E. coli; label from the status in PepcDB or PDB records.
“GPHMTQEEAVVNASLWEYVRLRESYDADTAQYAYDLVSNFSAPMVRQNYQQFFNYPNPTSPQVILGKHGRLEVEHIASNDVTPGVQQIRYKRTLIVDGKMPMASTWTATVRYEKVTSLPGRLRLTNPGGLVVTSYQTSEDTVSNAGHSEP”: the “soluble on expression in E. coli” value is “soluble”.
Then “GPLGSKELKVTQPEKSVSVAAGDSTVLNCTLTSLLPVGPIKWYRGVGQSRLLIYSFTGEHFPRVTNVSDATKRNNMDFSIRISNVTPEDAGTYYCVKFQKGPSEPDTEIQSGGGTEVYVL”, with “soluble”; and “GPNANPIPEHFFAPYIDMSLSVHKPLVEYAKLTGTKYFTLAFILYSSVYNGPAWAGSIPLEKFVDEVRELREIGGEVIIAFGGAVGPYLCQQASTPEQLAEWYIKVIDTYNATYLDFDIAAGIDADKLADALLIVQRERPWVKFSFTLPSDPGIGLAGGYGIIETMAKKGVRVDRVNPMTMDYYWTPSNAENAIKVAENVFRQLKQIYPEKSDEEIWKMIGLTPMIGVNDDKSVFTLEDAQQLVDWAIQHKIGSLAFWSVDRDHPGPTGEVSPLHRGTNDPDWAFSHVFVKFMEAFGYTFSAQTSEASVPT”, with “soluble”; and “GPQDPDKRRKTLVIIEKTYSLLLDVEDYERRYLLSLEEERPALMDDRKHKICSMYDNLRGKLPGQERPSDDHFVQIMCIRKGKRMVARILPFLSTEQAADILMTTARNLPFLIKKDAQDEVLPCLLSPFSLLLYHLPSVSITSLLRQLMNLPQSAATPALSNPHLTAVLQNKFGLSLLLILLSRGEDLQSSDPATESTQNNQWTEVMFMATRELLRIPQAALAKPISIPTNLVSLFSRYVDRQKLNLLETKLQLVQ”, with “soluble”.
For the sequence “GPVPTPPDNIQVQENFNISRIYGKWYNLAIGSTCPWLKKIMDRMTVSTLVLGEGATEAEISMTSTRWRKGVCEETSGAYEKTDTDGKFLYHKSKWNITMESYVVHTNYDEYAIFLTKKFSRHHGPTITAKLYGRAPQLRETLLQDFRVVAQGVGIPEDSIFTMADRGECVPGEQEPEPILIPRV”, the “soluble on expression in E. coli” value is recorded as “soluble”.
As for “GQEVTVSCAEGDTGFIYAGLLDVQITDVALDNMPKAPVKVMMNVGNPELAFSFANLPSEGIGLARMEFIINRQIGIHPKALLEFDKQDDELKAEITRRIAGYASPVDFYVDKIAEGVATLAASVYPRKTIVRMSDFKSNEYANL”, the “soluble on expression in E. coli” value is reported as “not soluble”.
Under “GQSLRSFQKQNEDNDKRQQILRSINVNVSSSEAETKYNELIKEAFLVNENGEKVEGDAFATDVVKAATEHQYPVFVANVDGQPKYIMALHGAGLWGPLWGYISVDSDKNTIYGADFSHQGETPGLGAEISKPVFSNEFKGKKIFMSGEFKSVAVVKPGKSVAGQDYVDGISGGTITSKGVDEMLFNSLSGYVKFLTSQN” stands “soluble”; under “GQSMTQQLRVLKSGVDIVVGTPGRVIDHLERKSLNLEHIAYFVLDEADEMLNMGFIDDIKEILKSTGPNKRMLFFSATMPKAILGIVKKHMQNYEHITIEKEELTETLTEQIYFEVKESDKFEALCRIIDIEDEFYGLVFCRTKTDTSQLAQKLSDRGYLADALHGDLSQQEREKILNKFRKQKINILAATDVAARGIDIMDLTHVINYALPQDPESYVHRIGRTGRAGKQGTAITFVTSTEFRRLTYIKKTSKSEMKKGHIPEIKDVIKAKRARVRTELEETIKTEEYGDCLEMSQKLLEEYPAEKILAALLKFTFKDKFDESMYTEISSGSSYVDRKGKSRLFIAMGKADGMTPDKLSYFIQEELGDGELKVRDAEIFPHFSFVTLPFAQAETLIEIFKNKRRGSKPFVELAQKSRGRSSKDSGETRSDNRGTSRGNSRNGESRGDSRGESRGTKSTNYSRSTRSTRSTKK”, “not soluble”.
With “GSDIGQVIHPDDFDKAAADDYVLHEDGEKIYFLIKSKTDEYCFTNLALVHLDGESAVSSKRVLYRYPYAHYPIRHVMFETAGTVDLDVEIKFEIGGKHYSIDVDKKQLEHVKDLYKALLAIAEKQYEGQKMLEFANSSLNHSVTILGGLRQGDMNVPQTFKDLSQESFDWLQGHYYKWNQKDFGSFYEKYINN”, the “soluble on expression in E. coli” value was “soluble”.
On to “GSEEHCAPNKEPVKYGELVVLGYNGALPNGDRGRRKSRFALYKRPKANGVKPSTVHVISTPQASKAISCKGQHSISYTLSRNQTVVVEYTHDKDTDMFQVGRSTESPIDFVVTDTISGSQNTDEAQITQSTISRFACRIVCDRNEPYTARIFAAGFDSSKNIFLGEKAAKWKNPDGHMDGLTTNGVLVMHPRGGFTEESQPGVWREISVCGDVYTLRETRSAQQRGKLVESETNVLQDGSLIDLCGATLLWRTADGLFHTPTQKHIEALRQEINAARPQCPVGLN”, for which the “soluble on expression in E. coli” value was “soluble”.
Regarding “GSEQKKRRLEEGTRANSVAESSPPFPLRSKTSVGSTNSQITETKNKQGVYPITESNLRILEGEDRSEKAKELLKKYVSNVFENEKTLYIYCKYVMLHYGKDLVNPNEVDSLEFQIINGGITNILIKVKDMSKQAKYLIRLYGPKTDEIINREREKKISCILYNKNIAKKIYVFFTNGRIEEFMDGYALSREDIKNPKFQKLIAKNLKLLHDIKLNENLYKELQVTQKVPGTRPSFLWNTIWKYFHLLNEERKKICSFDAKANILKLIDFDVLRDSIVEVESLCKRENSPIVLCHCDLLSSNIINTVGGGEAGELGEAGETGEGGETGEGGETGEGGETGEGGEGDSISFIDFEYSCPMERAYDIANHFNEYAGFNCDWDLTPSKEEEYHFIMHYLGTDDEELINQLIREIQPFYICSHINWGLWSLLQGMHSSIDFDFINYGMTRLTASCLPIFRSKV”, the “soluble on expression in E. coli” value is listed as “soluble”.
Then “GSGGARGLYLQTVTYNFLKEQGDNRIVRTQALPATRGTVSDRNGAVLALSAPTESLFAVPKDMKEMPSAAQLERLSELVDVPVDVLRNKLEQKGKSFIWIKRQLDPKVAEEVKALGLENFVFEKELKRHYPMGNLFAHVIGFTDIDGKGQEGLELSLEDSLYGEDGAEVVLRDRQGNIVDSLDSPRNKAPQNGKDIILSLDQRIQTLAYEELNKAVEYHQAKAGTVVVLDARTGEILALANTPAYDPNRPGRADSEQRRNRAVTDMIEPGSAIKPFVIAKALDAGKTDLNERLNTQPYKIGPSPVRDTHVYPSLDVRGIMQKSSNVGTSKLSARFGAEEMYDFYHELGIGVRMHSGFPGETAGLLRNWRRWRPIEQATMSFGYGLQLSLLQLARAYTALTHDGVLLPLSFEKQAVAPQGKRIFKESTAREVRNLMVSVTEPGGTGTAGAVDGFDVGAKTGTARKFVNGRYADNKHVATFIGFAPAKNPRVIVAVTIDEPTAHGYYGGVVAGPPFKKIMGGSLNILGISPTKPLTAAAVKTPS”, with “soluble”.
Then “GSGGIEGRHMVELLKLVRSSGCAAKVGPGDLQEILKGFNIYTDESTLVSIGDDAGVYEHNGIIWVYTVDIITPVVNDPYLWGAISTANALSDVYAMGGIPVNALAISCFNNCELDIEIFREVIRGALDKLREAKTVLLGGHTIDDKEPKFGLSVAGICPEGKYITQSGAQVGQLLILTKPIGTGILIKGLKEGILKEEDINEAIENMLALNDKARNLMLSLDATACTDVTGFGLLGHAWNICKNSNIGARIFFEKVPYYQLSENLVKKKIYPKGAIENLNFVKNYLKSNLDNWKLILLSDPVTSGGLLFTINKEKLEKIDETAKELEVNYWIIGETIAENVLEVL”, with “soluble”.
In the case of “GSGRVSLNFKDPEAVRALTCTLLREDFGLSIDIPLERLIPTVPLRLNYIHWVEDLIGHQDSDKSTLRRGIDIGTGASCIYPLLGATLNGWYFLATEVDDMCFNYAKKNVEQNNLSDLIKVVKVPQKTLLMDALKEESEIIYDFCMCNPPFFANQLEAKGVNSRNPRRPPPSSVNTGGITEIMAEGGELEFVKRIIHDSLQLKKRLRWYSCMLGKKCSLAPLKEELRIQGVPKVTYTEFCQGRTMRWALAWSFYD”, the “soluble on expression in E. coli” value is reported as “soluble”.
As for “GSHMASKISDNVRIKLYMEGTVNNHHFMCEAEGEGKPYEGTQMENIKVTKGGPLPFSFDILTPNCQYGSVAITKYTSGIPDYFKQSFPEGFTWERTTIYEDGAYLTTQQETKLDGNCLVYNIKILGCNFPPNGPVMQKKTQGWEPCCEMRYTRDGVLCGQTLMALKCADGNHLTCHLRTTYRSKKAAKALQMPPFHFSDHRPEIVKVSENGTLFEQHESSVARYCQTCPSKLGHN”, the “soluble on expression in E. coli” value is “soluble”.
As to “GSHMASMFGKLREKLKSFVKRVEEEVEKEEEEVEKKGLLDRILTVEIKEKDVDKALDELEIDLLEADVALEVVDALREKIKQKLVGKKVRIGTDKGKIIEEAVKEAVSEILETSRRIDLIEEIRKAEKPYVIMFVGFNGSGKTTTIAKLANWLKNHGFSVVIAASDTFRAGAIEQLEEHAKRIGVKVIKHSYGADPAAVAYDAIQHAKARGIDVVLIDTAGRSETNRNLMDEMKKIARVTKPNLVIFVGDALAGNAIVEQARQFNEAVKIDGIILTKLDADARGGAALSISYVIDAPILFVGVGQGYDDLRPFEKEWFLERIFGEENA”, the “soluble on expression in E. coli” value was “soluble”.
Under “GSHMASMTGGQQMGRGSEFKKYLETNGIKPKQFHKKELIFNQWDPQEYCIFLYDGITKLTSISENGTIMNLQYYKGAFVIMSGFIDTETSVGYYNLEVISEQATAYVIKINELKELLSKNLTHFFYVFQTLQKQVSYSLAKFNDFSINGKLGSICGQLLILTYVYGKETPDGIKITLDNLTMQELGYSSGIAHSSAVSRIISKLKQEKVIVYKNSCFYVQNLDYLKRYAPKLDEWFYLACPATWGKLN” stands “soluble”.
As to “GSHMDDDLVDAEGNLVENGGTYYLLPHIWAHGGGIETAKTGNEPCPLTVVRSPNEVSKGEPIRISSQYRSLFIPRGSLVALGFANPPSCAASPWWTVVDSPQGPAVKLSQQKLPEKDILVFKFEKVSHSNIHVYKLLYCQHDEEDVKCDQYIGIHRDRNGNRRLVVTEENPLELVLLKAKSETASSH”, the “soluble on expression in E. coli” value was “soluble”.
Then “GSHMDHLPMPKFGPLAGLRVVFSGIEIAGPFAGQMFAEWGAEVIWIENVAWADTIRVQPNYPQLSRRNLHALSLNIFKDEGREAFLKLMETTDIFIEASKGPAFARRGITDEVLWQHNPKLVIAHLSGFGQYGTEEYTNLPAYNTIAQAFSGYLIQNGDVDQPMPAFPYTADYFSGLTATTAALAALHKVRETGKGESIDIAMYEVMLRMGQYFMMDYFNGGEMCPRMSKGKDPYYAGCGLYKCADGYIVMELVGITQIEECFKDIGLAHLLGTPEIPEGTQLIHRIECPYGPLVEEKLDAWLATHTIAEVKERFAELNIACAKVLTVPELESNPQYVARESITQWQTMDGRTCKGPNIMPKFKNNPGQIWRGMPSHGMDTAAILKNIGYSENDIQELVSKGLAKVED”, with “soluble”; and “GSHMLEMSGPRAGFYRQELNKTVWEVPQRLQGLRPVGSGAYGSVCSAYDARLRQKVAVKKLSRPFQSLIHARRTYRELRLLKHLKHENVIGLLDVFTPATSIEDFSEVYLVTTLMGADLNNIVKCQALSDEHVQFLVYQLLRGLKYIHSAGIIHRDLKPSNVAVNEDSELRILDFGLARQADEEMTGYVATRWYRAPEIMLNWMHYNQTVDIWSVGCIMAELLQGKALFPGSDYIDQLKRIMEVVGTPSPEVLAKISSEHARTYIQSLPPMPQKDLSSIFRGANPLAIDLLGRMLVLDSDQRVSAAEALAHAYFSQYHDPEDEPEAEPYDESVEAKERTLEEWKELTYQEVLSFKPPEPPKPPGSLEIEQ”, with “soluble”.
Turning to “GSHMTMSRRNTDAITIHSILDWIEDNLESPLSLEKVSERSGYSKWHLQRMFKKETGHSLGQYIRSRKMTEIAQKLKESNEPILYLAERYGFESQQTLTRTFKNYFDVPPHKYRMTNMQGESRFLHPLNHYNS”, the “soluble on expression in E. coli” value is on record as “soluble”.
On to “GSHMTNWLRVYYYEDTISTIKDIAVEEDLSSTPLLKDLLELTRREFQREDIALNYRDAEGDLVRLLSDEDVALMVRQARGLPSQKRLFPWKLHITQKDNYRVYNTMP”, for which the “soluble on expression in E. coli” value is “soluble”.
